The Kd is the constant that tells how readily two partners part at equilibrium.

Data set [1] concerns the target JO-4 (affinity-enhanced junction opener; self-dimerizing HAdV3-V239D fiber knob) (human adenovirus type 3 (HAdV3)) (UniProt P04501). Briefly: SPR. In general terms: SPR reads the build-up and loss of mass on a sensor chip optically.
The data set “crystal structure” deals with the molecule itself. Description: crystal structure.

Consider “Recombinant human DSG2 protein (desmoglein 2) (from UniProt Q14126 50-609) (receptor)”, for which the equilibrium dissociation constant (Kd) in data set [1] came out at 1.4 nM.

B1: HAdV3 fiber knob mutant V239D (nondimerized, trimeric) (domain or fragment, human adenovirus type 3 (HAdV3))
chain: ALKNNTLWTGPKPEANCIIEYGKQNPDSKLTLILVKNGGIVNGYVTLMGASDYVNTLFKNKNVSINVELYFDATGHILPDSSSLKTDLELKYKQTADFSARGFMPSTTAYPFDLPNAGTHNENYIFGQCYYKASDGALFPLEVTVMLNKRLPDSRTSYVMTFLWSLNAGLAPETTQATLITSPFTFSYIREDD
B1: the binding result in the data set “crystal structure” is “binds”.

The record behind these values is PMC4445001 (Molecular Therapy. Methods & Clinical Development, 2015).
